Assay results as given in the supplement of paper PMC9112550, “Optimization of the antimicrobial peptide Bac7 by deep mutational scanning” (BMC Biology, 2022).

Test system: Escherichia coli TOP10
Assay: shrunken log2 fold change of peptide-encoding DNA abundance (4.5 h post-induction vs induction); higher = less antimicrobial activity (less host growth inhibition)
Details: time post-induction: 4.5 h; library: site-saturation at positions 5, 18, 19, 20
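Note: peptides expressed intracellularly from a pBAD plasmid library in pooled LB shake-flask culture, induced with 0.3% L-arabinose, DNA abundance read by NGS, three biological replicates, DESeq2 with apeglm shrinkage.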

Sequence | shrunken log2 fold change
RRIRTRPPRLPRPRPRPAIKPRP | 0.957
RRIRSRPPRLPRPRPRPFKAPRP | -0.0415
RRIRCRPPRLPRPRPRPNKTPRP | -0.0276
RRIRKRPPRLPRPRPRPHMYPRP | -0.131
RRIRLRPPRLPRPRPRPKTCPRP | 0.118
RRIRWRPPRLPRPRPRPAVQPRP | 0.792
RRIRTRPPRLPRPRPRPCTDPRP | -0.502
RRIRKRPPRLPRPRPRPCNEPRP | -0.00256
RRIRHRPPRLPRPRPRPNLNPRP | -0.786
RRIRVRPPRLPRPRPRPTMMPRP | -0.494
RRIRKRPPRLPRPRPRPNEWPRP | 0.0498
RRIRQRPPRLPRPRPRPKEMPRP | 0.229
RRIRHRPPRLPRPRPRPPWQPRP | -0.0158
RRIRMRPPRLPRPRPRPYNVPRP | -0.3
RRIRRRPPRLPRPRPRPAKFPRP | 0.217
RRIRARPPRLPRPRPRPQHCPRP | 0.138
RRIRSRPPRLPRPRPRPSDPPRP | -0.397
RRIRQRPPRLPRPRPRPAGIPRP | 0.0977
RRIRPRPPRLPRPRPRPSETPRP | -0.182
RRIRLRPPRLPRPRPRPYFSPRP | -0.39
RRIRVRPPRLPRPRPRPKVDPRP | 0.0982
RRIRLRPPRLPRPRPRPPVEPRP | 0.638
RRIRMRPPRLPRPRPRPFNCPRP | -0.643
RRIRSRPPRLPRPRPRPHNCPRP | -0.159
RRIRFRPPRLPRPRPRPDREPRP | -0.006

Sequence | shrunken log2 fold change
RRIRFRPPRLPRPRPRPNIKPRP | -0.504
RRIRCRPPRLPRPRPRPNSDPRP | -0.255
RRIRGRPPRLPRPRPRPISAPRP | 0.363
RRIRERPPRLPRPRPRPWPVPRP | -0.643
RRIRRRPPRLPRPRPRPAPEPRP | 2.07
RRIRLRPPRLPRPRPRPVSDPRP | 0.128
RRIRSRPPRLPRPRPRPNDHPRP | -0.322
RRIRWRPPRLPRPRPRPHQHPRP | -0.214
RRIRIRPPRLPRPRPRPQWKPRP | -0.186
RRIRHRPPRLPRPRPRPRQFPRP | -0.0158
RRIRERPPRLPRPRPRPGLFPRP | -0.0491
RRIRCRPPRLPRPRPRPSSMPRP | -0.859
RRIRVRPPRLPRPRPRPDNNPRP | -0.796
RRIRLRPPRLPRPRPRPNHYPRP | -0.505
RRIRDRPPRLPRPRPRPAWRPRP | 0.812
RRIRMRPPRLPRPRPRPKNDPRP | 1.05
RRIRTRPPRLPRPRPRPIVTPRP | 1.13
RRIRKRPPRLPRPRPRPGAGPRP | 0.734
RRIRHRPPRLPRPRPRPRYMPRP | -0.559
RRIRLRPPRLPRPRPRPAYSPRP | -0.354
RRIRFRPPRLPRPRPRPQITPRP | -0.481
RRIRDRPPRLPRPRPRPMQSPRP | 3.94
RRIRHRPPRLPRPRPRPWWCPRP | -0.034
RRIRWRPPRLPRPRPRPEFIPRP | 0.186
RRIRARPPRLPRPRPRPEWTPRP | 0.591

Sequence | shrunken log2 fold change
RRIRKRPPRLPRPRPRPEYPPRP | 0.0134
RRIRSRPPRLPRPRPRPCILPRP | -0.241
RRIRWRPPRLPRPRPRPACTPRP | 0.334
RRIRVRPPRLPRPRPRPKKCPRP | 0.0567
RRIRRRPPRLPRPRPRPGGIPRP | 0.0225
RRIRCRPPRLPRPRPRPVIHPRP | -0.567
RRIRCRPPRLPRPRPRPVNEPRP | -0.266
RRIRMRPPRLPRPRPRPFDPPRP | 0.0446
RRIRPRPPRLPRPRPRPCGKPRP | 0.0102
RRIRERPPRLPRPRPRPTVQPRP | -0.157
RRIRTRPPRLPRPRPRPLYIPRP | -0.998
RRIRFRPPRLPRPRPRPDSPPRP | -0.168
RRIRRRPPRLPRPRPRPQVLPRP | 0.0646
RRIRYRPPRLPRPRPRPWCEPRP | -0.468
RRIRYRPPRLPRPRPRPRNAPRP | 0.00628
RRIRERPPRLPRPRPRPLTNPRP | -0.242
RRIRHRPPRLPRPRPRPSLMPRP | 0.0202
RRIRARPPRLPRPRPRPFNSPRP | -0.0353
RRIRKRPPRLPRPRPRPHRMPRP | -0.0995
RRIRSRPPRLPRPRPRPCWCPRP | 0.0677
RRIRRRPPRLPRPRPRPGCWPRP | 0.561
RRIRDRPPRLPRPRPRPFDSPRP | -0.0169
RRIRLRPPRLPRPRPRPQAYPRP | -0.126
RRIRGRPPRLPRPRPRPELIPRP | 0.408
RRIRWRPPRLPRPRPRPAAEPRP | 1.21

Sequence | shrunken log2 fold change
RRIRSRPPRLPRPRPRPFSAPRP | -0.259
RRIRFRPPRLPRPRPRPMTNPRP | -0.2
RRIRERPPRLPRPRPRPMRFPRP | -0.0231
RRIRVRPPRLPRPRPRPLPFPRP | -0.367
RRIRSRPPRLPRPRPRPEHGPRP | -0.0838
RRIRWRPPRLPRPRPRPPSFPRP | -0.0861
RRIRLRPPRLPRPRPRPQHIPRP | -0.812
RRIRERPPRLPRPRPRPMTVPRP | -0.124
RRIRCRPPRLPRPRPRPYALPRP | -0.115
RRIRWRPPRLPRPRPRPRRAPRP | 0.737
RRIRRRPPRLPRPRPRPQYMPRP | -0.234
RRIRFRPPRLPRPRPRPLAHPRP | -0.13
RRIRHRPPRLPRPRPRPWDLPRP | -0.245
RRIRMRPPRLPRPRPRPAHQPRP | 0.397
RRIRHRPPRLPRPRPRPGIMPRP | -0.566
RRIRMRPPRLPRPRPRPNCHPRP | 0.0305
RRIRLRPPRLPRPRPRPWIWPRP | -0.0106
RRIRARPPRLPRPRPRPEMCPRP | 1.17
RRIRYRPPRLPRPRPRPVVFPRP | -0.747
RRIRFRPPRLPRPRPRPKQQPRP | 0.146
RRIRCRPPRLPRPRPRPDDKPRP | -0.739
RRIRRRPPRLPRPRPRPWASPRP | 0.289
RRIRNRPPRLPRPRPRPSKIPRP | -0.846
RRIRMRPPRLPRPRPRPIHGPRP | 0.0579
RRIRSRPPRLPRPRPRPIQRPRP | 0.0978

Sequence | shrunken log2 fold change
RRIRSRPPRLPRPRPRPGRDPRP | 0.255
RRIRGRPPRLPRPRPRPKFQPRP | 0.528
RRIRSRPPRLPRPRPRPGTKPRP | 0.108
RRIRNRPPRLPRPRPRPNMYPRP | -0.392
RRIRERPPRLPRPRPRPCPMPRP | -0.511
RRIRDRPPRLPRPRPRPPNNPRP | -0.261
RRIRYRPPRLPRPRPRPEQRPRP | -0.067
RRIRDRPPRLPRPRPRPEHHPRP | 0.155
RRIRIRPPRLPRPRPRPFCIPRP | -0.581
RRIRLRPPRLPRPRPRPCPFPRP | -0.353
RRIRLRPPRLPRPRPRPAAPPRP | 0.545
RRIRWRPPRLPRPRPRPYDKPRP | -0.534
RRIRNRPPRLPRPRPRPVKNPRP | -0.157
RRIRGRPPRLPRPRPRPWTDPRP | -0.211
RRIRWRPPRLPRPRPRPEDRPRP | 0.213
RRIRTRPPRLPRPRPRPKTHPRP | 0.29
RRIRNRPPRLPRPRPRPKLSPRP | 0.0328
RRIRCRPPRLPRPRPRPVEHPRP | 0.0272
RRIRRRPPRLPRPRPRPMLIPRP | -0.0813
RRIRWRPPRLPRPRPRPPSEPRP | 0.456
RRIRMRPPRLPRPRPRPLMQPRP | 0.29
RRIRCRPPRLPRPRPRPKAMPRP | 0.234
RRIRHRPPRLPRPRPRPCIMPRP | -0.0341
RRIRWRPPRLPRPRPRPQDQPRP | 0.0586
RRIRLRPPRLPRPRPRPALLPRP | 0.295

Sequence | shrunken log2 fold change
RRIRWRPPRLPRPRPRPRHDPRP | 0.107
RRIRTRPPRLPRPRPRPSHHPRP | -0.646
RRIRDRPPRLPRPRPRPLDNPRP | -0.0187
RRIRARPPRLPRPRPRPAQPPRP | 0.723
RRIRYRPPRLPRPRPRPETTPRP | -0.289
RRIRGRPPRLPRPRPRPGMFPRP | 0.474
RRIRTRPPRLPRPRPRPNIFPRP | -0.174
RRIRPRPPRLPRPRPRPEPMPRP | 0.542
RRIRPRPPRLPRPRPRPPVCPRP | 0.409
RRIRARPPRLPRPRPRPCRDPRP | -0.0411
RRIRSRPPRLPRPRPRPKWRPRP | 0.29
RRIRERPPRLPRPRPRPTWCPRP | 3.3
RRIRLRPPRLPRPRPRPYTGPRP | -0.125
RRIRWRPPRLPRPRPRPLAKPRP | 0.499
RRIRIRPPRLPRPRPRPRWFPRP | 0.555
RRIRQRPPRLPRPRPRPYHCPRP | -0.0107
RRIRPRPPRLPRPRPRPTLRPRP | 0.449
RRIRSRPPRLPRPRPRPDGTPRP | -0.199
RRIRNRPPRLPRPRPRPGEMPRP | 0.336
RRIRQRPPRLPRPRPRPFPMPRP | 0.155
RRIRKRPPRLPRPRPRPMSLPRP | 0.474
RRIRSRPPRLPRPRPRPNMTPRP | -0.247
RRIRDRPPRLPRPRPRPPLSPRP | 0.0434
RRIRYRPPRLPRPRPRPGKDPRP | -0.148
RRIRARPPRLPRPRPRPFCNPRP | -0.0929
